Here are results for seven molecules from US20140235698A1, “RNA Aptamer Specifically Binding to Carcinoembryonic Antigen and Use thereof” (POSCO, published 2014).

A word on the Kd: it is the constant that tells how readily two partners part at equilibrium.

Data set [1] has as its target DR5 cloned in the pVP16 vector as an activation-domain fusion (UniProt O14763). The data set is described as follows: cell-based or functional assay.
The target of data set [2] is T1, NCEA (CEA/CEACAM5 N domain to B3 domain) (Homo sapiens, UniProt P06731 P06731:35-675). Description: SPR; Biacore 2000; loop mutant, weakened or no binding per text. The note with it: tags: pET28a(+), Ni-NTA (His), E. coli BL21. Here is the method: (§1) To measure the affinity of RNA aptamer to CEA, SPR analysis was performed with Biacore 2000 (GE healthcare) device. Various concentrations of RNAs (Trunc. GROUP 1-1 & 1-2 and Mutant GROUP 1-1 & 1-2, Loop-only, Library) were flowed on NCEA and ACEA to measure the binding affinity, which is shown in the following TABLE 4 and FIG. 4.
Background: In SPR one partner is held on a chip, and binding of the other changes the refractive index at the surface.

The target of data set [3] is T2, ACEA (CEA/CEACAM5 A1 domain to B3 domain, N domain deleted) (Homo sapiens, UniProt P06731 P06731:145-675). Description: SPR; Biacore 2000. The following applies: tags: pET28a(+), Ni-NTA (His), E. coli BL21. The protocol:
as §1

Data set [4] deals with T1, NCEA (CEA/CEACAM5 N domain to B3 domain). The data set is described as follows: SPR; Biacore 2000. The note with it: tags: pET28a(+), Ni-NTA (His), E. coli BL21; hairpin-loop (predicted). The protocol: as §1
Data set [5] has as its target T2, ACEA (CEA/CEACAM5 A1 domain to B3 …). Description: SPR; Biacore 2000; GROUP I member tested not specified (SEQ 1-12). The following applies: tags: pET28a(+), Ni-NTA (His), E. coli BL21. Here is the method: (§2) To measure the affinity of RNA to CEA, SPR analysis was performed with Biacore 2000 (GE healthcare) device. Various concentrations of RNAs (GROUP 1, 2, 3 and library in FIG. 2) were flowed on NCEA and ACEA to measure the binding affinity.
(§3) The above value is measured using BIAevaluation program (which is used to analyze graph obtained from BIAcore device).

The target of data set [6] is T1, NCEA (CEA/CEACAM5 N domain to B3 domain). The description is as above. The note with it: tags: pET28a(+), Ni-NTA (His), E. coli BL21. Here is the method: as §2, §3

T1 sequence (P06731 35-675, one chain of several): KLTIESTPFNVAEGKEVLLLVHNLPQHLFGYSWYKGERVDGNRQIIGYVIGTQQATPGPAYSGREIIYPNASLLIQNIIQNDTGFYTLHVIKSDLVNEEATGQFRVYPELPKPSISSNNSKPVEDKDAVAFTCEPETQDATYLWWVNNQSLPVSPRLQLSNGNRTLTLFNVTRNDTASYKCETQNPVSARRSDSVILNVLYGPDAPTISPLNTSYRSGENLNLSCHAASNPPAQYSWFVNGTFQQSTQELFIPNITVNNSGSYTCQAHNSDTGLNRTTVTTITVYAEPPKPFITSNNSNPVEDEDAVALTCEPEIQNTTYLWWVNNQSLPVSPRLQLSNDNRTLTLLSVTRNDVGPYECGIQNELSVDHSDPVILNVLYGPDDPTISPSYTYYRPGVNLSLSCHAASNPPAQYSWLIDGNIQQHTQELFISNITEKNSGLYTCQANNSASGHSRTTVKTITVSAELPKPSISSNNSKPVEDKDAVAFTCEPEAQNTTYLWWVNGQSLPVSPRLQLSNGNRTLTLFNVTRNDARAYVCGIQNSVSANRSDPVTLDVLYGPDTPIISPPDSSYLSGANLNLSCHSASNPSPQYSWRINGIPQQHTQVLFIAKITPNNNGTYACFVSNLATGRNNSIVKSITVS
T2 sequence (P06731 145-675, stated change not applied, one chain of several): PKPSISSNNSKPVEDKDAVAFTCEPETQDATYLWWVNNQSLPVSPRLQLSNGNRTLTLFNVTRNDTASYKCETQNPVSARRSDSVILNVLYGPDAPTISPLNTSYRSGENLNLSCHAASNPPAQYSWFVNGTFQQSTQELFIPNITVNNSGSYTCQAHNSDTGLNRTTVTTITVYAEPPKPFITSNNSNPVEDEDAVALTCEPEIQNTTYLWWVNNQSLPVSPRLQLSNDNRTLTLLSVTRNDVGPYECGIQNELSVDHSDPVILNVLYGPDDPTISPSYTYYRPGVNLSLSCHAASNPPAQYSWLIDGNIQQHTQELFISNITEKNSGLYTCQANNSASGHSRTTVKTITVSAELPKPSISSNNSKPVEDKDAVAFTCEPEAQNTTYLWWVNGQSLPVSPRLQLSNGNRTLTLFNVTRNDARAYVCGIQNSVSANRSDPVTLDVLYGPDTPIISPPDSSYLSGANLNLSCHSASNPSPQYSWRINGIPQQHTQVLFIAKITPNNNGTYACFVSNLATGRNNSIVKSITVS

Turning to “NCEA (protein consisting of N domain to B3 domain of CEA, CEACAM5) cloned in the pM vector as a GAL4 DNA-BD fusion (from UniProt P04386 1-147; P06731 35-676)”, the SEAP activity in the medium of transfected cells (mammalian two-hybrid system) in data set [1] came out at 2.5 fold.

B1: Mutant GROUP 1-1 (m19-1, mutant YJ-1) (ssRNA)
RNA: GCGGAAGCGUGCUGGGCUAGGGCGGCGGCGGGAAAACCAGUACUUUCGU
modifications: 2'-F pyrimidines (C and U)
For B1, the Kd in data set [2] was 1300 nM; in data set [3] it was 790 nM.

B2: Truncated GROUP 1-1 (19-1, YJ-1) (ssRNA)
RNA: GCGGAAGCGUGCUGGGCUAGAAUAAUAAUAAGAAAACCAGUACUUUCGU
modifications: 2'-F pyrimidines (C and U)
B2: the Kd was 600 nM in data set [3] (hairpin-loop (predicted)) and 0.77 nM in data set [4].

B3: Mutant GROUP 1-2 (m19-2) (ssRNA)
RNA: GUGCUGGGCUAGGGCGGCGGCGGGAAAACCAGUAC
modifications: 2'-F pyrimidines (C and U)
Turning to B3, the Kd in data set [2] was 420 nM; in data set [3], 630 nM.

B4: Loop only (ssRNA)
RNA: GGCUAGAAUAAUAAUAAGAAAAC
modifications: 2'-F pyrimidines (C and U)
In data set [3], B4 yielded a Kd of 1100 nM.

B5: GROUP I RNA aptamer (ssRNA)
RNA: GGGAGAGCGGAAGCGUGCUGGGCUAGAAUAAUAAUAAGAAAACCAGUACUUUCGUGUCCCGGGAGGGUGCAUAACCCAGAGGUCGAUGGAUCC
modifications: 2'-F pyrimidines (C and U)
Regarding B5, the Kd in data set [5] turned out to be 3.22 nM; in data set [6], 0.313 nM.

B6: Truncated GROUP 1-2 (19-2) (ssRNA)
RNA: GUGCUGGGCUAGAAUAAUAAUAAGAAAACCAGUAC
modifications: 2'-F pyrimidines (C and U)
In the case of B6, the dissociation constant Kd in data set [3] (hairpin-loop (predicted)) is 590 nM; in data set [4] it was 4 nM.
